Measured values as given in patent publication US7473541B2, “Identification, cloning, expression, and purification of three novel human calcium-independent phospholipase A2 family members possessing triacylglycerol lipase and acylglycerol transacylase activities” (priority 2004, dated 2009).
Entries after “also recorded” stand apart in the source; their conditions may differ.

B1: iPLA2zeta(His)6: recombinant human calcium-independent phospholipase A2 zeta (TTS-2.2, SEQ ID NO: 2) expressed in Sf9 cells (protein, listed as Homo sapiens)
chain: MFPREKTWNISFAGCGFLGVYYVGVASCLREHAPFLVANATHIYGASAGALTATALVTGVCLGEAGAKFIEVSKEARKRFLGPLHPSFNLVKIIRSFLLKVLPADSHEHASGRLGISLTRVSDGENVIISHFNSKDELIQANVCSGFIPVYCGLIPPSLQGVRYVDGGISDNLPLYELKNTITVSPFSGESDICPQDSSTNIHELRVTNTSIQFNLRNLYRLSKALFPPEPLVLREMCKQGYRDGLRFLQRNGLLNRPNPLLALPPARPHGPEDKDQAVESAQAEDYSQLPGEDHILEHLPARLNEALLEACVEPTDLLTTLSNMLPVRLATAMMVPYTLPLESALSFTIRLLEWLPDVPEDIRWMKEQTGSICQYLVMRAKRKLGRHLPSRLPEQVELRRVQSLPSVPLSCAAYREALPGWMRNNLSLGDALAKWEECQRQLLLGLFCTNVAFPPEALRMRAPADPAPAPADPASPQHQPAGPAPLLSTPAPEARPVIGALGLHHHHHH
modifications: C-terminal His6 tag
B2: iPLA2epsilon(His)6: recombinant human calcium-independent phospholipase A2 epsilon (adiponutrin, SEQ ID NO: 1) expressed in Sf9 cells (protein, listed as Homo sapiens)
chain: MYDAERGWSLSFAGCGFLGFYHVGATRCLSEHAPHLLRDARMLFGASAGALHCVGVLSGIPLEQTLQVLSDLVRKARSRNIGIFHPSFNLSKFLRQGLCKCLPANVHQLISGKIGISLTRVSDGENVLVSDFRSKDEVVDALVCSCFIPFYSGLIPPSFRGVRYVDGGVSDNVPFIDAKTTITVSPFYGEYDICPKVKSTNFLHVDITKLSLRLCTGNLYLLSRAFVPPDLKVLGEICLRGYLDAFRFLEEKGICNRPQPGLKSSSEGMDPEVAMPSWANMSLDSSPESAALAVRLEGDELLDHLRLSILPWDESILDTLSPRLATALSEEMKDKGGYMSKICNLLPIRIMSYVMLPCTLPVESAIAIVQRLVTWLPDMPDDVLWLQWVTSQVFTRVLMCLLPASRSQMPVSSQQASPCTPEQDWPCWTPCSPEGCPAETKAEATPRSILRSSLNFFLGNKVPAGAEGLSTFPSFSLEKSLHHHHHH
modifications: C-terminal His6 tag
B3: iPLA2eta(His)6: recombinant human calcium-independent phospholipase A2 eta (GS2, SEQ ID NO: 3) expressed in Sf9 cells (protein, listed as Homo sapiens)
chain: MKHINLSFAACGFLGIYHLGAASALCRHGKKLVKDVKAFAGASAGFTSLVASVLLTAPEKIEECNQFTYKFAEEIRRQSFGAVTPGYDFMARLRSGMESILPPSAHFTELAQNRLHVSITNAKTRENHLVSTFSSREDLIKVLLASSFVPIYAGLKLVEYKGQKWVDFTGGLTNALPILPVGRTVTISPFSGRLDISPQDKGQLDLYVNIAKQDIMLSLANLVRLNQAFTLFPPSKRKMESLYQCGFDDTVKFLLKENWFEHHHHHH
modifications: C-terminal His6 tag

Assays:
Format in all cases: biochemical
[1] = Assay for triolein lipase activity of recombinant enzymes; conditions: for triolein lipase specific activity: peak fractions from Co2+ TALON affinity column
Protocol: Assay for Triolein Lipase Activity—Sample fractions were incubated in 85 mM potassium phosphate, pH 7.0 containing 2 mM EDTA and 2 mM DTT for 15 min at 37° C. in the presence of a suspension of 100 microM [9,10-^3H(N)]-triolein (100 microCi/micromol) in 25 microM egg yolk lecithin, and 100 microM sodium taurocholate. In some reactions, BEL was added at the indicated concentrations and incubated with enzyme at room temperature for 3 min prior to the addition of radiolabeled substrate. After extraction of radiolabeled reaction products and remaining substrate into butanol, samples were spotted on TLC plates, overlaid with oleic acid standard, dried, and developed in chloroformlmethanol/NH4OH (65:25:5). The region of the plate corresponding to the oleic acid standard (visualized by iodine staining) was scraped into scintillation vials and quantified by liquid scintillation spectrometry.

[2] = Assay for calcium-independent phospholipase A2 activity of recombinant enzymes; conditions: for calcium-independent PLA2 activity: Sf9 cytosol and membrane fractions, 1-palmitoyl-2-[1-14C]-oleoyl-sn-glycerol-3-phosphocholine, relative to control; for PLA2 hydrolysis rate: affinity purified, 30 min
Excerpt: […] Reactions were terminated by addition of 100 microliters of butanol and extraction of the radiolabeled product and remaining substrate into the butanol layer by vigorous vortexing. Samples were spotted on LK6 Silica Gel 60 Å TLC plates, overlaid with oleic acid standard, dried, and developed in petroleum etherlethyl etherlacetic acid (70:30:1). The region of the plate corresponding to the oleic acid standard (visualized by iodine staining) was scraped into scintillation vials and quantified by liquid scintillation spectrometry.

[3] = Assay for acylglycerol transacylase activity; conditions: affinity purified
Protocol: Assay for Acylglycerol Transacylase Activity—Highly purified CO^2+-TALON affinity chromatographic fractions containing iPLA2epsilon(His)6 (6xHis tag disclosed as SEQ ID NO: 29), iPLA2zeta(His)6 (6xHis tag disclosed as SEQ ID NO: 29) or iPLA2eta(His)6 (6xHis tag disclosed as SEQ ID NO: 29) (40 microliters) were incubated in 85 mM potassium phosphate, pH 7.0 (200 microliters final volume) for 15 mm at 37° C. in the presence of 10 microM [1-^14-C]-mono-olein (acyl donor), 25 microM acyl acceptor (mono-olein or diolein), 25 microM egg yolk lecithin, and 25 microM sodium taurocholate. After extraction of radiolabeled reaction products and remaining substrate into butanol, samples were spotted on TLC plates, overlaid with trileiddiolein standards, dried, and developed in petroleum etherlethyl etherlacetic acid (75:25:1). The regions of the plate corresponding to either the diolein, triolein, and fatty acid standards (visualized by iodine staining) were scraped into scintillation vials and quantified by liquid scintillation spectrometry.

[4] = 1-palmitoyl-2-[1-14C]-arachidonyl-sn-glycerol-3-phosphocholine
[5] = 1-palmitoyl-2-[1-14C]-linoleoyl-sn-glycerol-3-phosphocholine

| transacylation specific activity relative to iPLA2epsilon(His)6 and iPLA2zeta(His)6 [3] | Molecule | triolein lipase specific activity [1] | calcium-independent PLA2 activity [2] | PLA2 hydrolysis rate [2, 4] | PLA2 hydrolysis rate [2, 5] | triolein lipase specific activity relative to iPLA2epsilon(His)6 and iPLA2zeta(His)6 ([1]; Sf9 fractions, normalised to immunoreactive protein) |
| --- | --- | --- | --- | --- | --- | --- |
| – | B1 | 9 nmol oleic acid·min^−1·mg^−1 protein | did not yield detectable amounts; also recorded: did not display measurable iPLA2 activity | 119±6 pmol arachidonic acid·min^31 1·mg protein^−1 | 57±19 pmol linoleic acid·min^−1·mg protein^−1 | – |
| – | B2 | 8 nmol oleic acid·min^−1·mg^−1 protein | 20-50 pmol·min^−1·mg protein^−1 | 100±4 pmol arachidonic acid·min^31 1·mg protein^−1 | 57±3 pmol linoleic acid·min^−1·mg protein^−1 | – |
| approximately 10 fold | B3 | 52 nmol oleic acid·min^−1·mg^−1 protein | did not yield detectable amounts; also recorded: did not display measurable iPLA2 activity | 134±42 pmol arachidonic acid·min^31 1·mg protein^−1 | 77±23 pmol linoleic acid·min^−1·mg protein^−1 | 5-10 fold |
